# Data published in patent US7910550B2, “Human kunitz-type inhibitor with enhanced antifibrinolytic activity” (STC.UNM, priority 2004, dated 2011).
# Experiments:
# [1] = tested on: human umbilical vein endothelial cells (HUVECs); experiment: In vitro human endothelial cell angiogenesis assay (capillary tube formation on ECMATRIX); assay type: cell-based
# From the text: The angiogenesis assay is commercially available from Chemicon International, Inc. (Temecula, Calif.), and involves growing human umbilical vein endothelial cells (HUVECs) on a proprietary matrix, followed by assessing angiogenesis on this matrix by counting new branch points in sprouting endothelial cells.
# A semi-quantitative assay for in vitro angiogenesis was utilized. Human umbilical vein endothelial cells (HUVEC, Clonetics Corp., Walkersville, Md.) were maintained in 25 cm^2 flasks in EGM-2 media (Clonetics Corp.) supplemented with 2% fetal bovine serum, gentamicin, amphotericin-B, hEGF, hydrocortisone, VEGF, hFGF-B, R^3-IGF-1, ascorbic acid and heparin. For assay, a 48-well tissue culture plate was coated with 100 μl of ECMATRIX (Chemicon International, Inc., Temecula, Calif.) followed by incubation at 37° C. for one hour. Approximately 5×10^4 cells were then seeded onto the surface of the polymerized matrix. Varying concentrations of full-length human TFPI-2, diluted in EGM-2 media and filtered, were added to the wells and plate was placed in 37° C.-humidified CO2 incubator. Each treatment was performed in duplicate wells. Separately, VEGF was used as a positive control. The three-dimensional organization of cells was examined every hour under an inverted photomicroscope. The capillary tube branch point formation was counted in each well following eight hours of incubation. For each concentration, eight randomly chosen areas under 250× magnified field were observed. The results are expressed as number of branching points (mean±SEM) and the differences between each mean value was tested by one way analysis of variance (ANOVA). Statistically p-value <0.05 was accepted.
# To examine the effect of full-length human TFPI-2 on morphogenesis (capillary-like tube formation) of endothelial cells, HUVECs were seeded on the matrigel and treated with full-length human TFPI-2 (0.2 μM-5 μM).
# [2] = target: factor VIIa-tissue factor complex (Homo sapiens, UniProt P08709); conditions: relative to TFPI-2; cited from earlier work
# Sequence of factor VIIa-tissue factor complex (P08709 213-466 limits assumed): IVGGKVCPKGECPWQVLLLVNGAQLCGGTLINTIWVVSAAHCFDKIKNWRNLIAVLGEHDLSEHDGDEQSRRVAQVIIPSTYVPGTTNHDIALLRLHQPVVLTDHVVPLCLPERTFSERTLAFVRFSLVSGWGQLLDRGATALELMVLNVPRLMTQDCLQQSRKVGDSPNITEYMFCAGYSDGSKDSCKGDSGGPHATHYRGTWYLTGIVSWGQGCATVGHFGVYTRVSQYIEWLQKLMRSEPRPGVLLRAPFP
# Sequence of factor VIIa-tissue factor complex (P08709 61-212 partner limits assumed): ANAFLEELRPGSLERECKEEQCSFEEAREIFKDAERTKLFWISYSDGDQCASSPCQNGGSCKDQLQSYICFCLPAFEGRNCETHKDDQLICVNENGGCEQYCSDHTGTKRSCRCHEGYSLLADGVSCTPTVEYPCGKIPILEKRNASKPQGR
# Sequence of factor VIIa-tissue factor complex (P13726 33-295 partner): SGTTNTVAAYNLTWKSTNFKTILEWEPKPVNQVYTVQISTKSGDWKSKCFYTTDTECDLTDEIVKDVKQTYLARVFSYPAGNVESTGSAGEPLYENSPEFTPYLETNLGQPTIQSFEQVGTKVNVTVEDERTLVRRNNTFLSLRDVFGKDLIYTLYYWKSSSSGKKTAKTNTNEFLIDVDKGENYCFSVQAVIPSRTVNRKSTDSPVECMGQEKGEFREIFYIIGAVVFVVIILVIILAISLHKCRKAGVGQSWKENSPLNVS
# plasmin = plasmin (Homo sapiens, UniProt P00747); conditions: relative to TFPI-2; cited from earlier work
# Sequence of plasmin (P00747 581-810 limits assumed, species assumed): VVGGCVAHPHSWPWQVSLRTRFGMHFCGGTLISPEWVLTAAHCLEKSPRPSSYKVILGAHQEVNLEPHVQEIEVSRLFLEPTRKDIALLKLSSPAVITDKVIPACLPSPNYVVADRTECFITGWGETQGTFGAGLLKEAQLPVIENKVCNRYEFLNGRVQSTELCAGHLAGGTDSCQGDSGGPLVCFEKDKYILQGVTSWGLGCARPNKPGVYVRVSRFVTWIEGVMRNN
# Sequence of plasmin (P00747 97-580 partner limits assumed, species assumed): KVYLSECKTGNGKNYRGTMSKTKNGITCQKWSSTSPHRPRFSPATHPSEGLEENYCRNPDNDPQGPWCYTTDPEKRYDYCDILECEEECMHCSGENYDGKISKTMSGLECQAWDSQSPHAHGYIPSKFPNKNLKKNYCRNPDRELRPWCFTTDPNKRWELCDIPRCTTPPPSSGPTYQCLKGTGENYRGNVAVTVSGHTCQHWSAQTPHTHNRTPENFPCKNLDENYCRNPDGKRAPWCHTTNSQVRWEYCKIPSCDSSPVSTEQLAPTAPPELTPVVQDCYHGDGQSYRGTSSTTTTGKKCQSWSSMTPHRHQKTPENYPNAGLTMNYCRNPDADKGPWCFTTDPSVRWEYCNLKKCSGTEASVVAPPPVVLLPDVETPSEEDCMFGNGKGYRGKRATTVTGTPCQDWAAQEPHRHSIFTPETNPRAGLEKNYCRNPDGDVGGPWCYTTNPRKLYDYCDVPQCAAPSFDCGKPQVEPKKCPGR
# trypsin = conditions: relative to TFPI-2; cited from earlier work
# [3] = tested on: murine model of allergic asthma; experiment: Murine model of allergic asthma (OVA-immunized B6D2F1 mice); assay type: in vivo; conditions: lateral tail vein, days 11-14; vs vehicle treated mice
# Description: B6D2F1 mice were immunized with ovalbumin (OVA) adsorbed to alum (days 0 and 5) and received two OVA aerosols on day 12. A subgroup of mice were treated with hexahistidine-tagged KD1, delivered via the lateral tail vein, on days 11-14. Mice were sacrificed on day 15 for the enumeration and differentiation of cells in the airway and lung tissue compartments.
# HT-1080 cells [4] = experiment: Western blot of cell extracts (Bax, Bcl-2, cleaved caspase-9, cleaved caspase-3); assay type: cell-based, human; conditions: 1 μM, 48 hours; vs vehicle-treated cells
# Description: Cell extracts were analyzed for the pro-apoptotic Bax, the anti-apoptotic Bcl-2, cleaved caspase-9 and cleaved caspase-3 by immunoblotting techniques. Approximately, 1×10^6 HT-1080 cells were grown to confluence in 6-well plates and treated with recombinant proteins and vehicle as described above. Both floating and adherent cells were harvested and washed twice with cold PBS. The cells were lysed by sonication in 500 μl of lysis buffer containing of 125 mM Tris-HCl (pH 6.8), 2% SDS, 10% glycerol, 50 mM sodium phosphate, 1 mM PMSF and protease inhibitor cocktail. The lysate was kept on ice for about 10 minutes, centrifuged for 15 minutes at 10,000×g at 4° C., and the supernatant recovered. The supernatants were boiled for 3 min and 50 μg of lysate protein subjected to SDS-PAGE in 4-20% polyacrylamide gradient gels. […] The nitrocellulose membranes were then probed with specific antibodies dissolved in fresh blocking buffer, and immunoreactive proteins were identified using HRP-conjugated secondary antibodies and a chemiluminescent reagent system essentially as described in Kempiah et al., Mol. Cancer, 6:20, 2007. Separate blots were treated with mouse monoclonal anti-α-tubulin antibody in order to verify equal loading of lysate proteins onto the gel.
# HT-1080 cells [5] = experiment: Apoptosis detection by AO/EB staining; assay type: cell-based, human; conditions: 1 μM, 48 h; approximately 5% in vehicle-treated cells
# Description: (§1) All cell lines were maintained in Dulbecco's minimal essential medium (DMEM), supplemented with heat-inactivated 10% fetal bovine serum and penicillin-streptomycin. The cells were cultured either in 6- or 12-well plates at 37° C. in a humidified atmosphere containing 6% CO2. At confluence, the cells were treated with fresh medium containing either wild-type TFPI-2, R24K KD1, or R24Q KD1. Cells were treated in duplicate with purified proteins at concentrations ranging from 0.5 μM to 10 μM for different time intervals. One set were also treated with PBS to serve as a control. The Limulus Amebocyte Lysate (LAL) assay was performed on each protein preparation to determine the presence of any endotoxin/LPS, and only trace amounts of endotoxin (<0.5 ng/L) were detected in each protein preparation.
# Cells were grown to confluence in two-chamber culture slides containing 2 ml medium. For AO/EB staining, the cultures were treated with recombinant proteins as described above. […] Cells were viewed within 30 minutes of staining and counted using a Zeiss axiocam epifluorescence microscope (Carl Zeiss, Inc., Thornwood, N.Y.) equipped with a triple cube filter [DAPI/FITC/RITC]. […] Experiments were performed in triplicate, and a minimum of 100 total live and apoptotic cells were counted in each treatment.
# HT-1080 cells [6] = experiment: FACS analysis of apoptosis with annexin V/propidium iodide; assay type: cell-based, human; conditions: 1 μM, 48 hours
# Description: as §1
# To assess the degree of apoptosis between the various treatments, cells were grown to confluence in 6 well plates and treated with either proteins or vehicle as described earlier. For annexin V staining, approximately 1.2×10^6 cells were harvested with PBS containing 1 mM EDTA and washed twice gently with cold PBS. The cells were suspended in 100 μl of cold binding buffer (10 mM Hepes (pH 7.4), 140 mM NaCl, 2.5 mM CaCl2), and subsequently incubated at room temperature in the dark for 25 minutes with 5 μl of FITC-conjugated annexin V and 10 μl of propidium iodide (50 μg/ml stock). The cells were then washed in 500 μl of binding buffer to remove unbound reagents, centrifuged at 900×g for 5 minutes, and resuspended in 1 ml of cold binding buffer. The labeled cells were then analyzed using a FACSCALIBUR flow cytometer (Becton Dickinson, San Jose, Calif.) and the data analyzed using […] software.
molecule,measurement,setting,value
VEGF [reference compound],time to first visible tube,[1]; approximately 4 hours in the control,≤ 3 h
same,number of tube formation,"[1]; positive control, compared to control HUVECs",significant increase in number of tube formation
"R24Q TFPI-2: full-length TFPI-2 mutant, P1 arginine R24 to glutamine; inactive mutant (protein) DAAQEPTGNNAEICLLPLDYGPCQALLLRYYYDRYTQSCRQFLYGGCEGNANNFYTWEACDDACWRIEKVPKVCRLQVSVDDQCEGSTEKYFFNLSSMTCEKFFSGGCHRNRIENRFPDEATCMGFCAPKKIPSFCYSPKDEGLCSANVTRYYFNPRYRTCDAFTYTGCGGNDNNFVSREDCKRACAKALKKKKKMPKLRFASRIRKIRKKQF",inhibitory activity toward factor VIIa-tissue factor complex,[2],5-10%
same,lost inhibitory activity towards factor VIIa-tissue factor complex,[2],> 90%
same,inhibitory activity toward plasmin,plasmin,5-10%
same,lost inhibitory activity towards plasmin,plasmin,> 90%
same,inhibitory activity toward trypsin,trypsin,5-10%
same,lost inhibitory activity towards trypsin,trypsin,> 90%
"KD1: the first Kunitz-type domain of human TFPI-2 (SEQ ID NO:2), recombinant, expressed in E. coli (protein, listed as Homo sapiens) DAAQEPTGNNAEICLLPLDYGPCRALLLRYYYDRYTQSCRQFLYGGCEGNANNFYTWEACDDACWRIEKVPKV","cells, macrophages and lymphocytes recoverable from the airways",[3],significant decrease in the number of airway macrophages and lymphocytes
same,inhibition of angiogenesis (capillary-like tube formation),[1]; HUVECs on matrix,does not inhibit angiogenesis
"R24Q KD1: KD1 point mutant, arginine 24 to glutamine; lacks reactive site arginine/lysine residue (protein, left off: small tags and cut ends) DAAQEPTGNNAEICLLPLDYGPCQALLLRYYYDRYTQSCRQFLYGGCEGNANNFYTWEACDDACWRIEKVPKV",activated caspase 9 and activated caspase 3 (immunoblot),HT-1080 cells [4],levels were significantly lower than that observed with TFPI-2 or R24K KD1
same,apoptotic cells (AO/EB staining),HT-1080 cells [5],18%
same,cells in a late apoptotic stage (annexin V and PI positive),HT-1080 cells [6]; vehicle 4%,~15%
same,early apoptotic cells (annexin V-FITC positive),HT-1080 cells [6]; vehicle 16%,55%
